One data set addresses T1, MfIDH (Methylobacillus flagellatus, UniProt Q1GZD1).
T1 construct: gene Mfla_2139; native enzyme purified from M. flagellatus cells, untagged; 413 residues; homodimer (recombinant N-terminal 6xHis form said to be essentially the same)
T1 sequence (Q1GZD1 1-413): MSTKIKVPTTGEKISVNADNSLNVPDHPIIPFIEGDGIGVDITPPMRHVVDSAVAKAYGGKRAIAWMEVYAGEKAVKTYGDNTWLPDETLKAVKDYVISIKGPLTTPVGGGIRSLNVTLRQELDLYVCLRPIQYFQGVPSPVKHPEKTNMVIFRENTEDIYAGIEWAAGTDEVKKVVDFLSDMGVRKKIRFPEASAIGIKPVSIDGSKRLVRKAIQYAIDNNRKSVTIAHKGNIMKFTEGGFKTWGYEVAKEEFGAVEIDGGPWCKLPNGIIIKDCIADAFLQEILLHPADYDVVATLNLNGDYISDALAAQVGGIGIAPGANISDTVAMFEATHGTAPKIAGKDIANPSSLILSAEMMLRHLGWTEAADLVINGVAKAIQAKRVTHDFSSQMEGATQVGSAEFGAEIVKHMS
The data set can be described thus: NAD(P)H formation at […] nm. Particulars: read-out: % inhibition at 2 mM. The data set is classed as biochemical.

The target of data set [1] is recombinant 6x-His-tagged isocitrate dehydrogenase from Methylobacillus flagellatus (Methylobacillus flagellatus ATCC51484). The data set can be described thus: SEC; HiLoad 10/300 Superdex 200, 0.05 M potassium phosphate buffer pH 7.0, 0.15 M NaCl, 0.01% sodium azide, 0.5 mL/min; calibrated with standards of 29-669 kDa. On the technique in general: Size exclusion chromatography separates by hydrodynamic size, large species first.

The target of data set [2] is native isocitrate dehydrogenase from Methylobacillus flagellatus (Methylobacillus flagellatus ATCC51484). The data set can be described thus: native gel or EMSA; gradient non-denaturing PAGE (4-20%, w/v), protein stain and zymogram staining for NAD+- and NADP+-dependent activity; band compared with protein markers. (In general: In EMSA bound probe runs differently from free probe, usually more slowly.)

Substrate in data set [3]: NC(=O)c1ccc[n+]([C@@H]2O[C@H](COP(=O)(O)OP(=O)(O)OC[C@H]3O[C@@H](n4cnc5c(N)ncnc54)[C@H](O)[C@@H]3O)[C@@H](O)[C@H]2O)c1
Put plainly: purified protein. The data set is classed as biochemical, Methylobacillus flagellatus. Particulars: saturating DL-isocitrate, Mn2+, 100 mM Tris-HCl pH 8.5, 42°C, apparent, pH 8.5.

Substrate in data set [4]: NC(=O)c1ccc[n+]([C@@H]2O[C@H](COP(=O)(O)OP(=O)(O)OC[C@H]3O[C@@H](n4cnc5c(N)ncnc54)[C@H](OP(=O)(O)O)[C@@H]3O)[C@@H](O)[C@H]2O)c1
Put plainly: purified protein. Type of data set: biochemical, Methylobacillus flagellatus. Particulars: saturating DL-isocitrate, Mn2+, 100 mM Bis-Tris-HCl pH 6.0, 42°C, apparent, pH 6.0.

Substrate in data set [5]: O=C(O)CC(C(=O)O)C(O)C(=O)O
The data set can be described thus: purified protein. Particulars: cosubstrate NAD+ (saturating), Mn2+, 100 mM Tris-HCl pH 8.5, 42°C, pH 8.5. Type of data set: biochemical, Methylobacillus flagellatus.

The inhibition is how much of the control response was suppressed. On to `Nc1ncnc2c1ncn2[C@@H]1O[C@H](COP(=O)(O)OP(=O)(O)OP(=O)(O)O)[C@@H](O)[C@H]1O` [ATP], for which the inhibition at 2000 µM on MfIDH was found to be 50%.

The term stoichiometry N denotes the number of molecules, sites or subunits per partner or assembly. As to “recombinant 6x-His-tagged isocitrate dehydrogenase from Methylobacillus flagellatus (enzyme)”, in data set [1], the stoichiometry N turned out to be 2.

With “native isocitrate dehydrogenase from Methylobacillus flagellatus (enzyme)”, the stoichiometry N in data set [2] worked out at 2.

B1: MfIDH (Methylobacillus flagellatus KT) (protein)
chain: T1 sequence (Q1GZD1 1-413)
notes: native enzyme purified from M. flagellatus cells, untagged; 413 residues; homodimer (recombinant N-terminal 6xHis form said to be essentially the same)
By Km is commonly meant the concentration of substrate that gives half-maximal velocity. As usually defined, the kcat is the maximal rate divided by the concentration of active sites. The term kcat/Km denotes the second-order rate constant that governs catalysis at low substrate concentration. Take B1: the Km in “purified protein [3]” is 113 µM; in “purified protein [4]” it was 184 µM; in “purified protein [5]”, 9.0 µM. Further, the kcat in the data set “purified protein [3]” was 166 s⁻¹; in “purified protein [4]”, 56 s⁻¹. The kcat/Km in “purified protein [3]” is 1.5e+06 M⁻¹ s⁻¹; in “purified protein [4]”, 300000 M⁻¹ s⁻¹.

Source of the values: PMC5397045, “Biochemical and molecular characterization of the isocitrate dehydrogenase with dual coenzyme specificity from the obligate methylotroph Methylobacillus Flagellatus” (PLoS ONE, 2017).
